US20070036810A1, “Cyclic amp response element activator proteins and uses related thereto” (priority 2003, published 2007)
“Also recorded” adds a separate entry of the source.

Assays:
endogenous CREB1 = target: T1, endogenous CREB1 (Homo sapiens, UniProt P16220); test: Immuno-precipitation of FLAG-tagged CREAP1 variants and Western blot against CREB in HEK293 cells; format: binding; details: M2-agarose immuno-precipitation, Western blot against CREB
T1 construct: endogenous in cells; host or cells: HEK293
Protocol: To determine if CREAP1 can interact directly with CREB, K1 and K5 variants of CREAP1 (see Table 1) were transfected into HEK293 cell grown in 100 mm dishes (Falcon) using Fugene6 reagent (Roche Applied Science) according to the protocol provided by the manufacturer. 40 hours after transfection, cells were scraped from the plates in PBS and lysed in 800 μl of Low Stringency buffer containing: 10 mM HEPES pH 7.6, 250 mM NaCl, 5 mM EDTA, 1 mM DTT, 0.1% NP-40 and freshly dissolved protease inhibitors. Immuno-precipitation was carried out using M2-agarose beads (Sigma). Precipitated proteins were separated on 4-20% of SDS-PAGE (Invitrogen) and transferred to nitrocellulose membrane (Invitrogen). Western blot were performed using antibody against CREB (Cell Signaling Technology). As a negative control expression construct encoding FLAG-tagged human histone deacetylase 1 (HDAC1) was used.

[1] = test system: pCRE-Luc reporter (cyclic AMP response element); test: pCRE-Luc reporter assay of CREAP1 deletion fragments in Hela cells; format: cell-based; details: Flag-CREAP1 deletion constructs co-transfected with pCRE-Luc in Hela cells; Dual-Glo Luciferase 40 hrs after transfection
Protocol: CREAP1 protein amino acids 1-170, 1-356, […], 1-580 and 170-650 are inserted into pFlag-CMV4 expression vector (Sigma, St. Louis, Mo.) by utilizing PCR strategy familiar to one of skill in the art. 10^4 Hela cells are split into each well of 96 well tissue culture plates. Cells are transfected 16 hours later with 100 ng of pCRE-Luc reporter construct, 30 ng of Renilla luciferase control plasmid together with 100 ng of pCMVSPORT6, pCMVSPORT-CREAP1 and different Flag-CREAP1 deletion fusion constructs respectively. Transfection is done with Fugene6 reagent (Roche Applied Biosciences) following the manufacturer's instructions. A Dual-Glo Luciferase assay (Promega) is conducted 40 hrs after transfection. Firefly luciferase counts are normalized to Renilla luciferase and plotted.
To dissect the functional domains within the CREAP1 molecule, CREAP1 protein fragments of amino acids 1-170, 1-356, 1-494, 1-580 and 170-650 were subcloned into pFlag-CMV4 vector by utilizing PCR based strategy and tested for function in a Dual Glo Luciferase assay as described above.

T1 sequence (P16220 whole entry): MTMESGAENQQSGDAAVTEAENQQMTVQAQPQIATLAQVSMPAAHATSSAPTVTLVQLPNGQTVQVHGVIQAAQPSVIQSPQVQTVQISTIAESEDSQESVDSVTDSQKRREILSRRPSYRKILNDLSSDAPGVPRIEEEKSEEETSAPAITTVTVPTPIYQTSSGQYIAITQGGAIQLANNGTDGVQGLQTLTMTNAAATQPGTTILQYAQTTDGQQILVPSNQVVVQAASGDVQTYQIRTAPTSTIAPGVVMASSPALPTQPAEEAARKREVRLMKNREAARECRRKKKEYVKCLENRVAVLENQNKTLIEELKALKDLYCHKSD

B1: K1: CREAP1 fragment, amino acids 1-170, SEQ ID NO 32, Flag fusion (protein)
chain: MATSNNPRKFSEKIALHNQKQAEETAAFEEVMKDLSLTRAARLQLQKSQYLQLGPSRGQYYGGSLPNVNQIGSGTMDLPFQPSGFLGEALAAAPVSLTPFQSSGLDTSRTTRHHGLVDRVYRERGRLGSPHRRPLSVDKHGRQADSCPYGTMYLSPPADTSWRRTNSDSA
modifications: Flag tag; human
association with endogenous CREB1 (endogenous CREB1): associated with endogenous CREB1
Activity [1]: not sufficient for its function; also recorded: Inactive
